Two molecules from patent US20040091878, “Zinc finger domain recognition code and uses thereof” (published 2004) can be followed below.

As usually defined, the Kd is a measure of binding affinity in units of concentration.

Data set [1] addresses Zif268 (UniProt P08046 P08046:333-421). Description: EMSA; half-maximal binding; positive control; 0.1 mM ZnCl2. A general note: Mobility shift assays separate free from complexed probe on a gel.
Data set [2] concerns the target AL1 ZFP (Clone 1, 3-finger, Sp1C domain 2 framework) (artificial). As to the kind of experiment: EMSA; half-maximal binding also 18 nM; 10 mM Tris pH 7.5, 100 mM NaCl, 1 mM MgCl2, 0.1 mM ZnCl2, poly(dA-dT)2, on ice. The following applies: tags: expressed from pET-21a in E. coli BL21(DE3)pLysS, Bio-Rex 70 purified; label: 5'-32P.

Chain of AL1 ZFP (Clone 1, 3-finger, Sp1C domain 2 framework) (artificial) (chain, as listed by the source): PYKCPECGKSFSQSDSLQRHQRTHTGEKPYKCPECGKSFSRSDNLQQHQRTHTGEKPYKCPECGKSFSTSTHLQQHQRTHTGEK

B1: Zif268 target probe (dsDNA)
DNA 1: TATATATAGCGTGGGCGTTATATATA
DNA 2: TATATATAACGCCCACGCTATATATA
Take B1: in data set [1], the “apparent K (half saturation)” value is 4 nM.

B2: AL1 target probe (dsDNA)
DNA 1: TATATATAAGTAAGGTAGTATATATA
DNA 2: TATATATACTACCTTACTTATATATA
On to B2, for which the Kd in data set [2] turned out to be 18 nM.
